{
  "source": "patent US10138280B2",
  "about": "“Polypeptides targeting glycosylated MUC2 proteins, methods of synthesis, their nucleic acids and uses thereof” (INSTITUT PASTEUR, priority 2011, dated 2018)",
  "molecules": {"B1": {"name": "Cy5-MUB70: Cy5-labelled MUB70 polypeptide, labelled via Cy5 maleimide on N-terminal cysteine (conjugate)", "peptide": "CVHVQYIDGETDQMLRQDDLDGYTDETIPYSTAEGIKKFEGDGYELFKDNFPAGEKFDNDDTNDQFYTVIF"}},
  "key": {"[1]": {"tested_on": "mucus layer of differentiated HT-29 MTX human epithelial colonic cells", "assay": "Staining of living HT-29 MTX cells, epifluorescent microscope", "format": "cell-based", "conditions": "living differentiated HT-29 MTX; 1 μg/mL, 2 h, serum-free media", "method": "FIGS. 3A-3B. Cy5-MUB70 colonic mucus binding property. (FIG. 3A) HT-29 MTX living cells were incubated for 2 h with Cy5-MUB70 in a serum-free media. The resulting fluorescent signal (red) was visualized at the surface of the cell layer using an epifluorescent microscope. Z-projection, performed using ImageJ software, allowed 3D localization of Cy5-MUB70 fluorescence signal in the mucus layer. Bar is 10 μm (FIG. 3B) MPE and SHG imaging of the binding of Cy5-MUB70 to the human colonic mucus. […] Human tissue autofluorescence is detected in the same red channel as Cy5.\nFor dot blot assay, goat α-MUC2 pAbs (sc-13312, Santa Cruz), mouse α-MUC5ac (Abcam), mouse α-MUC5b mAbs (Abcam), mouse α-MUC6 mAbs (sc-33668, Santa Cruz), mouse α-lactoferrin mAbs (sc-52048, Santa Cruz) and rabbit α-FCGBP pAbs (Sigma-Aldrich) antibodies were used at a 1:100 dilution. Corresponding HRP-Conjugated antibodies were used at a 1:1000 dilution. For staining living HT-29 MTX cells and on human colon ex vivo model, Cy5-MUB70 was incubated (1 μg/mL) in a serum starved culture medium (DMEM and RPMI respectively) for two hours at 37° C. prior observation.\nFluorescent labeled tissues and cells were observed using a widefield epifluorescent microscope (Zeiss Definite Focus), laser-scanning confocal microscope (Leica TCS SP5) or a two-photons confocal microscope (Zeiss LSM710), as indicated. […]"}, "[2]": {"tested_on": "rabbit ileal mucus", "assay": "Mucus staining on fixed tissues, rabbit ileum", "conditions": "fixed tissue, 1 μg/mL", "method": "(§1) FIGS. 8A-8D. (FIG. 8A) Cell toxicity of Cy5-MUB70 tested on HT-29-MTX and Hela epithelial cells. Cell survival was assessed using Sytoxgreen dye on cultures exposed to 1 μg/mL Cy5-MUB70 from 0 to 10 h, as indicated. NS indicates P>0.05 (Student's T-test). (FIG. 8B) Rabbit colonic and ileal mucus staining on fixed tissues (PFA 4%), using Cy5-MUB70 (1 μg/mL) (blue). Actin is stained in red (Phall.-RRX). Bar is 50 μm. (FIG. 8C) Human ex vivo colon sample was incubated for 2 h with 1 μg/mL Cy5-MUB70 in a serum-free media. Resulting fluorescent staining was assessed using a two-photons microscope (see Methods). Z-projection, performed using ImageJ software, allows 3D localization of Cy5-MUB70 fluorescence signal. Bar is 100 μm. Colon scheme: firmly (f) and loosely (I) attached colonic mucus layers are represented at the surface of the epithelium (e). (FIG. 8D) Kinetics of colonic mucus with Cy5-MUB70. […] Human tissue autofluorescence is detected in the same red channel as Cy5.\nFIGS. 11A-11C. Mucus staining using Cy5-MUB70 on fixed tissues. (FIG. 11A) Guinea pig colon, (FIG. 11B) rabbit ileum and (FIG. 11C) mouse colon were fixed in PFA 4%. Immunofluorescent staining was performed using Cy5-MUB70 (1 μg/mL) (blue). Actin is stained in red (Phall.-RRX), Muc2 is stained in green (α-Muc2). Observations were performed using a confocal microscope. Bar is 50 μm. […]"}, "[3]": {"tested_on": "HT-29 MTX cells", "assay": "Cell toxicity, Sytox Green assay", "format": "cell-based, human", "conditions": "differentiated HT-29 MTX; 1 μg/mL, up to 10 h, serum starved media; Student test NS, p>0.05, n=3", "method": "as §1, with “signal.” for “signal. Bar is 100 μm. Colon scheme: firmly (f) and loosely (I) attached colonic mucus layers are represented at the surface of the epithelium (e). (FIG. 8D) Kinetics of colonic mucus with Cy5-MUB70.”\n(§2) Hela cells were grown in DMEM medium supplemental with 10% FCS. […] Cell viability was determined by staining with Sytox Green (Invitrogen) as described by the manufacturer. […] Fluorescence was measured using a FACS flow cytometer (BD systems) recording at least 10,000 events. Data were analysed with CellQuest Pro software (BD Biosciences), and expressed as percentage survival.\n(§3) As Cy5-MUB70 was envisaged to be used on living cells and organs, its cell-toxicity has been evaluated. This probe was incubated on differentiated HT-29 MTX and on Hela cells as cell viability was assessed using a Sytox Green assay (see Methods)."}, "[4]": {"tested_on": "Hela cells", "assay": "Cell toxicity, Sytox Green assay", "format": "cell-based, human", "conditions": "1 μg/mL, up to 10 h, serum starved media, Student test NS, p>0.05, n=3", "method": "as §1, with “signal.” for “signal. Bar is 100 μm. Colon scheme: firmly (f) and loosely (I) attached colonic mucus layers are represented at the surface of the epithelium (e). (FIG. 8D) Kinetics of colonic mucus with Cy5-MUB70.”\nas §2, §3"}, "[5]": {"tested_on": "rabbit colonic mucus", "assay": "Mucus staining on fixed tissues, rabbit colon", "method": "as §1\nFIGS. 9A-9B. (FIG. 9A) Co-localization of Muc2 (green) and Cy5-MUB (blue) performed by immunofluorescent detection on human mucus extract collected on ex vivo tissues using an epifluorescent microscope. Bar is 50 μm. (FIG. 9B) Co-localization of Muc2 (green) and Cy5-MUB (blue) observed on fixed (PFA 4%) rabbit colon samples. Actin is stained in red (Phall.RRX). Observations are performed using a confocal microscope. […]"}},
  "data": [
    {"molecule": "B1", "values": [
      {"measurement": "mucus layer binding on living cells", "setting": "[1]", "result": "binding the mucus layer at the surface of the cells"},
      {"measurement": "ileal mucus staining", "setting": "[2]", "result": "negative results"},
      {"measurement": "cell viability", "setting": "[3]", "result": "do not affect significantly cell viability"},
      {"measurement": "cell viability", "setting": "[4]", "result": "do not affect significantly cell viability"},
      {"measurement": "colocalization with Muc2", "setting": "[5]; fixed rabbit colon samples", "result": "colocalization detection of Muc2 and Cy5-MUB70"},
      {"measurement": "colonic mucus staining", "setting": "[5]; rabbit colon, fixed tissue, 1 μg/mL", "result": "confirmed"}
    ]}
  ]
}
